According to patent US6984772:

Assays:
[1] = target: Recombinant human fibrinogen from the milk of transgenic mice (UniProt P02671)
[2] = target: Plasma derived human fibrinogen (reference protein) (UniProt P02671)

**Q.** For Human thrombin, which “clot formation after thrombin, 4 U/ml, 37 C, 24 hours” value [1] is on record?
**A.** Its value is “Cloudy clot-like precipitates were clearly visible in TG (pellet-2)”.

**Q.** And the “clot formation after thrombin, 4 U/ml, 37 C, 24 hours” value [2]?
**A.** The value was “Cloudy clot-like precipitates were clearly visible in ... hFIB-spiked NTG (pellet-2)”.
